Results reported in publication PMC12196928, “Site-Directed Mutagenesis Mediated by Molecular Modeling and Docking and Its Effect on the Protein–Protein Interactions of the bHLH Transcription Factors SPATULA, HECATE1, and INDEHISCENT” (Plants, 2025).
Positions count from the first letter of the chain named. Numbers in names are those of the source. Blank lines part the entries; values can stand above or below the binder they belong to.

Key:
[1] = molecular target: T1, VN:SPT (SPATULA fused to the N-terminal fragment of Venus YFP) (Arabidopsis thaliana, UniProt Q9FUA4 1-373); experiment: split reporter (BiFC, NanoBiT); BiFC with split Venus YFP (VN 1-154, VC 155-238) in Arabidopsis Col-0 mesophyll protoplasts, PEG-Ca transfection, 35S promoter, read 16 h after transfection by confocal microscopy; frequency = YFP-positive protoplasts/total protoplasts x 100, four images of about 200 protoplasts each; settings: partners not purified
T1 construct: SPATULA (SPT), bHLH transcription factor of Arabidopsis thaliana, AT4G36930; source: Arabidopsis Col-0 mesophyll protoplasts, transfected (PEG-Ca), in cells; not shown: Venus YFP N-terminal fragment (residues 1-154)
T1 sequence (looked up): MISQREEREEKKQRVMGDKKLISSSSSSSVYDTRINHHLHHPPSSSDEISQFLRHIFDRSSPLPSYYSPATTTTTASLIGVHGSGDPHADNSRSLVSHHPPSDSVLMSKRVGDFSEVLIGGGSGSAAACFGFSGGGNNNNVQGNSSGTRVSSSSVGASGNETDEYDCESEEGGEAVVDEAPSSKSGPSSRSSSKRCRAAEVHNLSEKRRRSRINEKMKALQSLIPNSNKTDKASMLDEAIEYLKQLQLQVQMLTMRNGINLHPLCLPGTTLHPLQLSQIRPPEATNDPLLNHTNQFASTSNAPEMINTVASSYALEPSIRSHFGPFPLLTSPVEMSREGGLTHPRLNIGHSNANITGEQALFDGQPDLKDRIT

[2] = molecular target: T2, VN:SPT-4A (SPATULA V176A-V177A-D178A-E179A fused to the N-terminal fragment of Venus YFP) (Arabidopsis thaliana, UniProt Q9FUA4 1-373, V176A | V177A | D178A | E179A); experiment: as above; settings: partners not purified
T2 construct: SPATULA (SPT), Arabidopsis thaliana, AT4G36930; source: Arabidopsis Col-0 mesophyll protoplasts, transfected (PEG-Ca), in cells; not shown: Venus YFP N-terminal fragment (residues 1-154)
T2 sequence (looked up): T1 sequence (looked up) with V176A, V177A, D178A, E179A

average interaction frequency (percent of protoplasts with YFP signal) [1]: 34.2%
B1: VC:HEC1 (HECATE1 fused to the C-terminal fragment of Venus YFP) (natural protein, Arabidopsis thaliana, UniProt Q9FHA7 1-241, looked up)
chain: MDSDIMNMMMHQMEKLPEFCNPNSSFFSPDHNNTYPFLFNSTHYQSDHSMTNEPGFRYGSGLLTNPSSISPNTAYSSVFLDKRNNSNNNNNGTNMAAMREMIFRIAVMQPIHIDPEAVKPPKRRNVRISKDPQSVAARHRRERISERIRILQRLVPGGTKMDTASMLDEAIHYVKFLKKQVQSLEEQAVVTGGGGGGGGRVLIGGGGMTAASGGGGGGGVVMKGCGTVGTHQMVGNAQILR
notes: HECATE1 (HEC1), bHLH transcription factor of Arabidopsis thaliana, AT5G67060; source: Arabidopsis Col-0 mesophyll protoplasts, transfected (PEG-Ca), in cells; not shown: Venus YFP C-terminal fragment (residues 155-238)

average interaction frequency (percent of protoplasts with YFP signal) [2]: 13.5%
B2: VC:IND (INDEHISCENT fused to the C-terminal fragment of Venus YFP) (natural protein, Arabidopsis thaliana, UniProt O81313 1-198, looked up)
chain: MENGMYKKKGVCDSCVSSKSRSNHSPKRSMMEPQPHHLLMDWNKANDLLTQEHAAFLNDPHHLMLDPPPETLIHLDEDEEYDEDMDAMKEMQYMIAVMQPVDIDPATVPKPNRRNVRISDDPQTVVARRRRERISEKIRILKRIVPGGAKMDTASMLDEAIRYTKFLKRQVRILQPHSQIGAPMANPSYLCYYHNSQP
notes: INDEHISCENT (IND), bHLH transcription factor of Arabidopsis thaliana, AT4G00120; source: Arabidopsis Col-0 mesophyll protoplasts, transfected (PEG-Ca), in cells; not shown: Venus YFP C-terminal fragment (residues 155-238)

average interaction frequency (percent of protoplasts with YFP signal) [2]: 14.9% | average interaction frequency (percent of protoplasts with YFP signal) [1]: 13%
B3: VC:IND-3A (INDEHISCENT N112A-R113A-R114A fused to the C-terminal fragment of Venus YFP) (natural protein, Arabidopsis thaliana, UniProt O81313 1-198, looked up)
chain: B2 chain with N112A, R113A, R114A
notes: INDEHISCENT (IND), Arabidopsis thaliana, AT4G00120; the methods list only VC:IND-3A; source: Arabidopsis Col-0 mesophyll protoplasts, transfected (PEG-Ca), in cells; not shown: Venus YFP C-terminal fragment (residues 155-238)
